Patent US20160137746A1, “METHODS FOR TREATING HIGH CARDIOVASCULAR RISK PATIENTS WITH HYPERCHOLESTEROLEMIA” (Sanofi Biotechnology, priority 2014, published 2016)

Tests used:
[1] = tested on: high cardiovascular risk patients with hypercholesterolemia; test: ODYSSEY COMBO II: safety (TEAEs, adjudicated CV events, laboratory parameters, low LDL-C)
Experimental: Safety assessments during both studies were as follows. Safety was assessed through adverse event (AE) reporting (including adjudicated cardiovascular events), laboratory analyses, and vital signs measurement. Since the LDL-C-lowering effects of PCSK9 inhibition on top of a statin are unknown, a number of AEs were defined as being of special interest and were monitored, including alanine aminotransferase abnormalities, allergic events, hemolytic anemia, pregnancy, overdose with study drug, neurologic events, ophthalmic events, and local injection site reactions.
Safety Analyses were as follows. AEs (including adjudicated cardiovascular events), laboratory parameters, and vital signs were reported descriptively, based on the safety population (all randomized patients who received at least 1 dose or partial dose of study treatment). The safety analysis focused on the treatment-emergent AE period defined as the time from the first double-blind dose to the last double-blind dose of the investigational product +70 days (10 weeks).
(§1) The safety population included all randomized patients who received at least one dose or part of a dose of the double-blind IMP.
Safety analyses were descriptive, performed on the safety population according to treatment actually received. For analysis of TEAE and PCSA, the safety analysis focused on the TEAE period defined as the time from the first dose of double-blind IMP administration (capsule or injection, whichever comes first) up to 70 days after the last double-blind injection.

[2] = tested on: high cardiovascular risk patients with hypercholesterolemia; test: ODYSSEY COMBO I: safety (TEAEs, adjudicated CV events, laboratory PCSA, low LDL-C)
Experimental: Safety was assessed through adverse event (AE) reporting (including adjudicated cardiovascular events), laboratory analyses, and vital signs measurement. Since the LDL-C-lowering effects of PCSK9 inhibition on top of a statin are unknown, a number of AEs were defined as being of special interest and were monitored, including alanine aminotransferase abnormalities, allergic events, hemolytic anemia, pregnancy, overdose with study drug, neurologic events, ophthalmic events, and local injection site reactions. AEs were determined to be of special interest based on review of previous clinical trials, correspondence with regulatory authorities and the Data Monitoring Committee, the use of a monoclonal antibody in this study, and the route of drug administration.
AEs (including adjudicated cardiovascular events), laboratory parameters, and vital signs were reported descriptively, based on the safety population (all randomized patients who received at least 1 dose or partial dose of study treatment). The safety analysis focused on the treatment-emergent AE period defined as the time from the first double-blind dose to the last double-blind dose of the investigational product +70 days (10 weeks).
as §1
Safety analyses were descriptive, performed on the safety population according to treatment actually received. For analysis of TEAE and PCSA, the safety analysis focused on the TEAE period defined as the time from the first dose of double-blind IMP up to 70 days after the last double-blind injection.

[3] = safety population at 52 weeks, all patients, number (%) of patients
[4] = treatment period, safety population
[5] = alirocumab patients with LDL-C <25 mg/dL

For “Alirocumab: human anti-PCSK9 antibody; HCVR SEQ ID NO:1, LCVR SEQ ID NO:6; CDRs SEQ ID NOs 2/3/4/7/8/10”, which “TEAE system organ class: Gastrointestinal disorders” value [1, 3] is on record?
Its value is 72 (15.0).

What about the “TEAE system organ class: General disorders and administration site conditions” value [1, 3] of the same substance?
The value was 56 (11.7).

And the “TEAE system organ class: Injury, poisoning, and procedural complications” value [1, 3]?
Its value is 61 (12.7).

And the “TEAE system organ class: Investigations” value [1, 3]?
Its value is 35 (7.3).

And the “TEAE system organ class: Metabolism and nutrition disorders” value [1, 3]?
Its value is 27 (5.6).

What about the “TEAE system organ class: Musculoskeletal and connective tissue disorders” value [1, 3] of the same substance?
The value was 94 (19.6).

And the “TEAE system organ class: Neoplasms, benign, malignant and unspecified (including cysts and polyps)” value [1, 3]?
Its value is 15 (3.1).

And the “TEAE system organ class: Nervous system disorders” value [1, 3]?
The value was 77 (16.1).

What about the “TEAE system organ class: Psychiatric disorders” value [1, 3] of the same substance?
Its value is 21 (4.4).

What about the “TEAE system organ class: Renal and urinary disorders” value [1, 3] of the same substance?
Its value is 21 (4.4).

What about the “TEAE system organ class: Reproductive system and breast disorders” value [1, 3] of the same substance?
Its value is 12 (2.7).

And the “TEAE system organ class: Respiratory, thoracic, and mediastinal disorders” value [1, 3]?
Its value is 45 (9.4).

What about the “TEAE system organ class: Skin and subcutaneous tissue disorders” value [1, 3] of the same substance?
The value was 35 (7.3).

And the “TEAE system organ class: Vascular disorders” value [1, 3]?
Its value is 33 (6.9).

And the “Patients with 2 consecutive calculated LDL-C value <15 mg/dL” value [1, 4]?
The value was “(6.7%)”.

What about the “Patients with 2 consecutive calculated LDL-C value <25 mg/dL” value [1, 4] of the same substance?
The value was “(22.8%)”.

What about the “Patients with 2 consecutive calculated LDL-C value <25 mg/dL” value ([1]; treatment period, safety population, listed as alirocumab) of the same substance?
The value was 22.8%.

And the “Ischemic events (within SOC Cardiac disorders)” value ([2]; TEAE period)?
Its value is 9 events.

What about the SAEs reported ([2]; TEAE period) of the same substance?
Its SAEs reported is 12.6%.

What about the “SOC Cardiac disorders” value ([2]; TEAE period) of the same substance?
The value was 8.2%.

And the “SOC Metabolism and nutrition disorder” value ([2]; TEAE period)?
Its value is 10.1%.

What about the SOC eye disorders ([2]; TEAE period) of the same substance?
The SOC eye disorders was 4.3%.

And the Arthralgia rate ([2]; alirocumab group as a whole)?
The Arthralgia rate was 3.9%.

And the “Invertebral disc protusion rate” value ([2]; alirocumab group as a whole)?
Its value is 1.0%.

And the Myalgia rate ([2]; alirocumab group as a whole)?
Its Myalgia rate is 3.4%.

What about the Osteoarthritis rate ([2]; alirocumab group as a whole) of the same substance?
The Osteoarthritis rate was 3.9%.

And the Arthralgia rate [2, 5]?
Its Arthralgia rate is 5.1%.

And the “Invertebral disc protusion rate” value [2, 5]?
The value was 5.1%.

What about the Myalgia rate [2, 5] of the same substance?
Its Myalgia rate is 7.7%.

What about the Osteoarthritis rate [2, 5] of the same substance?
Its Osteoarthritis rate is 7.7%.

And the “Patients with cardiovascular events that were positively adjudicated” value ([2]; as stated in text b249 (5 patients))?
The value was 2.4%.

And the “PCSA: decrease of hemoglobin from baseline ≧20 g/L” value ([2]; in vivo)?
Its value is 6.3%.

What about the “PCSA: new cases of erythrocytes values ≧6 Tera/L” value ([2]; in vivo) of the same substance?
Its value is 2.5%.

What about the “Patients with impaired glucose control at baseline classified as diabetic in the TEAE period” value ([2]; in vivo) of the same substance?
Its value is 7.4%.

What about the “Patients with two consecutive calculated LDL-C values <25 mg/dL” value ([2]; in vivo) of the same substance?
Its value is 19.5%.

And the “Safety in patients with two consecutive calculated LDL-C <25 mg/dL” value ([2]; in vivo)?
Its value is “No particular safety concern”.

And the “Asthma (general allergic reactions), cases” value ([2]; including 2 serious cases)?
Its value is 5 (2.4%) No. (%).

What about the “Deaths during treatment period” value ([2]; myocardial infarction and pulmonary embolism) of the same substance?
Its value is 1.0%.

What about the Tolerability ([2]; overall results) of the same substance?
Its Tolerability is “generally well tolerated”.

What about the “Time to the first calculated LDL-C value <15 mg/dL, mean (SD)” value ([2]; safety population) of the same substance?
The value was 12.51 (6.83) weeks.

And the “Time to the first calculated LDL-C value <15 mg/dL, median” value ([2]; safety population)?
Its value is 13.57 weeks.

And the “Time to the first calculated LDL-C value <25 mg/dL, mean (SD)” value ([2]; safety population)?
Its value is 11.48 (9.72) weeks.

And the “Time to the first calculated LDL-C value <25 mg/dL, median” value ([2]; safety population)?
The value was 8.00 weeks.

What about the “Any patients with treatment emergent cardiovascular events confirmed by adjudication” value ([2]; safety population, to week 52) of the same substance?
The value was −6 (2.9) No. (%) of patients.

And the “Arthralgia (TEAE preferred term)” value ([2]; safety population, to week 52)?
The value was 8 (3.9) No. (%) of patients.

And the “Congestive heart failure requiring hospitalization, adjudicated” value ([2]; safety population, to week 52)?
Its value is 0 No. (%) of patients.

And the “Coronary heart disease death (including undetermined cause), adjudicated” value ([2]; safety population, to week 52)?
Its value is 1 (0.5) No. (%) of patients.

And the “Dizziness (TEAE preferred term)” value ([2]; safety population, to week 52)?
The value was 11 (5.3) No. (%) of patients.

What about the “Fatal and non-fatal ischemic stroke (including stroke not otherwise specified), adjudicated” value ([2]; safety population, to week 52) of the same substance?
The value was −2 (1.0) No. (%) of patients.

And the “Injection site reaction (TEAE preferred term)” value ([2]; safety population, to week 52)?
The value was 11 (5.3) No. (%) of patients.

And the “Ischemia driven coronary revascularization procedure, adjudicated” value ([2]; safety population, to week 52)?
The value was 3 (1.4) No. (%) of patients.

What about the “Local injection site reactions (AE of special interest)” value ([2]; safety population, to week 52) of the same substance?
The value was 11 (5.3) No. (%) of patients.

What about the “Nasopharyngitis (TEAE preferred term)” value ([2]; safety population, to week 52) of the same substance?
Its value is 15 (7.2) No. (%) of patients.

And the “Neurocognitive disorders (AE of special interest)” value ([2]; safety population, to week 52)?
Its value is 0 (0) No. (%) of patients.

And the “Neurological events (AE of special interest)” value ([2]; safety population, to week 52)?
The value was 5 (2.4) No. (%) of patients.

What about the “Non-cardiac chest pain (TEAE preferred term)” value ([2]; safety population, to week 52) of the same substance?
The value was 2 (1.0) No. (%) of patients.

What about the “Non-fatal myocardial infarction, adjudicated” value ([2]; safety population, to week 52) of the same substance?
The value was 1 (0.5) No. (%) of patients.

What about the “Potential general allergic reaction events (AE of special interest)” value ([2]; safety population, to week 52) of the same substance?
Its value is 18 (8.7) No. (%) of patients.

What about the “Sinusitis (TEAE preferred term)” value ([2]; safety population, to week 52) of the same substance?
The value was 11 (5.3) No. (%) of patients.

What about the “TEAE leading to death” value ([2]; safety population, to week 52) of the same substance?
The value was 2 (1.0) No. (%) of patients.

What about the TEAEs ([2]; safety population, to week 52) of the same substance?
Its TEAEs is 157 (75.8) No. (%) of patients.

And the “TEAEs leading to discontinuation” value ([2]; safety population, to week 52)?
Its value is 13 (6.3) No. (%) of patients.

What about the “Treatment-emergent SAEs” value ([2]; safety population, to week 52) of the same substance?
The value was 26 (12.6) No. (%) of patients.

What about the “Local injection site reactions (AE of special interest)” value ([2]; safety population, to week 52, listed as alirocumab) of the same substance?
The value was 11 (5.3%) No. (%) of patients.
